Series [1] addresses T1, AMPK-α2 (Rattus norvegicus, UniProt P80385+Q09137).
T1 construct: increased at least 2-fold upon treatment with ImM AICAR in NRKC cells; endogenous in cells; host or cells: NRKC (neonatal rat keratinocytes)
Description: AMPK-α2 activity in NRKC cells treated with AICAR. The format is cell-based. To be noted: ImM AICAR, same assay conditions, data not shown.

Series [2] deals with T2, AMPKα1 (Rattus norvegicus, UniProt P54645+P80385).
T2 construct: endogenous in cells; host or cells: NRKC (neonatal rat keratinocytes)
T2 sequence (P54645 whole entry): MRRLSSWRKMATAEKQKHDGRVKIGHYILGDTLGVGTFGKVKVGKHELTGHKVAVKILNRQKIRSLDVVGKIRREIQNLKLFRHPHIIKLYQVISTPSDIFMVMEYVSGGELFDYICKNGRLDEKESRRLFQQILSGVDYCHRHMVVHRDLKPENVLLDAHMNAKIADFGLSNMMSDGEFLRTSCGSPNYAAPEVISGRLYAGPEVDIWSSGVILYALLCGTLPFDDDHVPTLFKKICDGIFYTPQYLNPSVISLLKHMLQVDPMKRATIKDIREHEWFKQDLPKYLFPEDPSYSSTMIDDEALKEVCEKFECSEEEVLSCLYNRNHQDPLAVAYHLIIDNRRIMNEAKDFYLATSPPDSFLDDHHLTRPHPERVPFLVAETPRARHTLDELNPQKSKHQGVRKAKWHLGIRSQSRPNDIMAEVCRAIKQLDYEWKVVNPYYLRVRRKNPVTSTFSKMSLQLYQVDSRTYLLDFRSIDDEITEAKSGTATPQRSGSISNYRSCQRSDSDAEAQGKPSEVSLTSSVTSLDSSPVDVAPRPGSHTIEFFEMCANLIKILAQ
T2 sequence (P80386 whole entry partner): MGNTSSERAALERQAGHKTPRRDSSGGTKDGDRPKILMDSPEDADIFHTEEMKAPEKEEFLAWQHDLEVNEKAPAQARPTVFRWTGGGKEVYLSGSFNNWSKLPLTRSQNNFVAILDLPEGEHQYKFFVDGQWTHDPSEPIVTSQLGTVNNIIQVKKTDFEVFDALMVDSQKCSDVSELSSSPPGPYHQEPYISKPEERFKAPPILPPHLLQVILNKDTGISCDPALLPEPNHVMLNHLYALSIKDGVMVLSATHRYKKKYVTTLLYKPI
T2 sequence (P80385 whole entry): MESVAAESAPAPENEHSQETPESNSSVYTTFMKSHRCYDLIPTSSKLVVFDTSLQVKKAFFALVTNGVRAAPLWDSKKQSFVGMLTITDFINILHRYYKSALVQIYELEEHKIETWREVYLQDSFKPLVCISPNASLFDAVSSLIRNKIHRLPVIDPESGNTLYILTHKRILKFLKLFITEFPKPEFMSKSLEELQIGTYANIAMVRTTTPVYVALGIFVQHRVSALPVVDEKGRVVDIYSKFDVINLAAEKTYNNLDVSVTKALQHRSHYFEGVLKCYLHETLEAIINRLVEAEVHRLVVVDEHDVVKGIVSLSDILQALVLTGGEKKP
Description: AMPKα1 activity in NRKC cells treated with AICAR. The format is cell-based. The settings on record: treatment with AICAR, data not shown.

Series [3] has as its target T3, SNARK (Rattus norvegicus, UniProt Q66HE5).
T3 sequence (Q66HE5 1-630): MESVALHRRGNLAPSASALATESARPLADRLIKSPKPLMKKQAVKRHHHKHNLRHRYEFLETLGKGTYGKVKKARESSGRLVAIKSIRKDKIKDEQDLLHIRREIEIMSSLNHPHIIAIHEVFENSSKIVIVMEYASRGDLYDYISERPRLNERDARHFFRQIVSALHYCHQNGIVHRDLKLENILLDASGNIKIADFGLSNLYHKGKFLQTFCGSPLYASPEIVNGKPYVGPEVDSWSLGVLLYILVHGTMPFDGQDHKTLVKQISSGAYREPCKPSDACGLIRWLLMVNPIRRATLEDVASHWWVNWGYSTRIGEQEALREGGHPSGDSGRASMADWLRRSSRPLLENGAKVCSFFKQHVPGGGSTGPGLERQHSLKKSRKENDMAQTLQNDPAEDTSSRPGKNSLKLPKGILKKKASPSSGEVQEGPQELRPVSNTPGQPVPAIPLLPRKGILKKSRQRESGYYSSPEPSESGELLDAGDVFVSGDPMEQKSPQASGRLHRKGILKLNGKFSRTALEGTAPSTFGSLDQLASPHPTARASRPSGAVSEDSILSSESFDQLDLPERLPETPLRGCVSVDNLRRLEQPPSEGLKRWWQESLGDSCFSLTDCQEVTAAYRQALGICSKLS
Kind of series: Activation of SNARK in NRKC cells using AICAR. The format is cell-based. Also noted: In the assays performed with SNARK immunoprecipitated from NRKC cell lysates; endogenous in cells; host or cells: NRKC (neonatal rat keratinocytes). The settings on record: 1 mM AICAR for one hour, kinase assay with 200 μM AMP and SAMS peptide, p<0.05. As for the experimental part: FIG. 8.(A) Activation of SNARK in NRKC cells using AICAR. NRKC cells were treated with 0, 0.5 mM, 1 mM or 2 mM AICAR for 1 hour. SNARK protein was immunoprecipitated from 500 μg of cell lysates with SNARK antiserum and kinase assays were performed in the presence of 200 μM AMP using the SAMS peptide. Solid box represents control (0 mM AICAR) samples and hatched boxes represent AICAR-treated samples. Data is expressed as phosphotransferase activity relative to control values (control=1) and represents the means±S.E.M. for 2 individual experiments with at least 10 samples per group per experiment. *p<0.06, relative to control values. […] Results are expressed as phosphotransferase activity relative to control values (control=1) and represents the mean±S.E.M. from 2 individual experiments with at least 10 samples per group per experiment. *p<0.03, relative to control values. […]
The adenosine analogue, 5-aminoimidizole-4-carboxamide riboside (AICAR), provides a means of stimulating AMPK activity in whole cells, even in the presence of high glucose concentrations, and mimics the effects of AMP on the AMPK cascade. Intriguingly, SNARK activity was induced 2.8-fold (p<0.05) in NRKC cells when treated with 1 mM AICAR for one hour (FIG. 8A, hatched box), as compared to SNARK activity measured in untreated NRKC cells (solid box).

Series [4] concerns SNARK. Kind of series: SNARK phosphotransferase activity (SAMS peptide) assayed in the presence of AMP, wildtype and SNARK-transfected BHK cell lysates. Format: biochemical, hamster. To be noted: 200 μM AMP in assay; wildtype BHK cell lysates. As for the experimental part: (§1) FIG. 7. […] SNARK protein was immunoprecipitated from 500 μg of cell lysate from wildtype BHK, BHK−1, BHK+1 and BHK+11 cells. Kinase assays were performed using the 200 μM SAMS peptide as substrate in kinase reaction cocktail. NRKC cells (stippled box); wildtype BHK cells (solid box); BHK+1 and +11 cells (hatched boxes). Results are the means±S.E.M. for 2 experiments (n=5 each time). For comparative purposes, AMPKα2 activity was assayed in these cell lines and found to be equivalent to, 4-fold lower and 1.5-fold lower than the SNARK activity levels measured under basal growth conditions in wildtype BHK, SNARK-transfected BHK and NRKC cell lines, respectively (data not shown).
(§2) Kinase Assay—Following immunoprecipitation with antiserum, SNARK activity was analysed by performing kinase assays with immunoprecipitated SNARK and a variety of substrates (MBP, B-casein, whole histone fraction, protamine sulphate and a synthetic peptide substrate (HMRSAMSGLHLVKRR, ‘SAMS’ peptide). Kinase assays with the SAMS peptide were performed essentially as described, except that the three washes were done with IP buffer containing 500 mM NaCl followed by a final wash in kinase assay buffer. For kinase assays performed to determine substrate specificity (with substrates other than SAMS peptide), reactions included 30 ug of substrate, 500 nM PKA inhibitor peptide and 1 uM PKC inhibitor peptide. […]

For series [5], the target named is T3, SNARK. Kind of series: SNARK phosphotransferase activity (SAMS peptide) assayed in the presence of AMP, NRKC cell lysates. Format: biochemical. Also noted: In the assays performed with SNARK immunoprecipitated from NRKC cell lysates; endogenous in cells; host or cells: NRKC (neonatal rat keratinocytes). The settings on record: 200 μM AMP in assay; NRKC cells; p<0.001. As for the experimental part: as §1, §2

Series [6] deals with T3, SNARK. Kind of series: SNARK phosphotransferase activity (SAMS peptide) assayed in the presence of AMP, wildtype and SNARK-transfected BHK cell lysates. Format: biochemical, hamster. Also noted: The complete open reading frame of rat SNARK was subcloned into the pcDNA3.1 vector; expressed in transfected cells. The settings on record: 200 μM AMP in assay; SNARK-transfected BHK cell lysates. Here is the method: as §1, §2

Series [7] has as its target T3, SNARK. Kind of series: Kinase assay of immunoprecipitated SNARK with candidate substrates (substrate specificity). Also noted: In the assays performed with SNARK immunoprecipitated from NRKC cell lysates; endogenous in cells; host or cells: NRKC (neonatal rat keratinocytes). Format: biochemical. The settings on record: for Activity (phosphotransferase activity of SNARK towards substrate): SNARK immunoprecipitated from 500 ug NRKC cell lysate, SAMS peptide 250 uM or 30 ug of other substrate, 1 μM PKC inhibitor and 500 nM PKA inhibitor peptides, 30 C, means±S.E.M.; for Ability of SNARK to phosphorylate the substrate: SNARK immunoprecipitated from NRKC cell lysates, PKA and PKC peptide inhibitors included. As for the experimental part: Kinase Assay—Following immunoprecipitation with antiserum, SNARK activity was analysed by performing kinase assays with immunoprecipitated SNARK and a variety of substrates (MBP, B-casein, whole histone fraction, protamine sulphate and a synthetic peptide substrate (HMRSAMSGLHLVKRR, ‘SAMS’ peptide). Kinase assays with the SAMS peptide were performed essentially as described, except that the three washes were done with IP buffer containing 500 mM NaCl followed by a final wash in kinase assay buffer. For kinase assays performed to determine substrate specificity (with substrates other than SAMS peptide), reactions included 30 ug of substrate, 500 nM PKA inhibitor peptide and 1 uM PKC inhibitor peptide. Activities were calculated as fmol of phosphate incorporated into the SAMS peptide/min per milligram of lysate subjected to immunoprecipitation, minus the activity obtained with a blank reaction (cell lysate and Protein A-Sepharose only).
Peptide inhibitors of PKA and PKC were included in these reactions to eliminate phosphorylation of these substrates by these enzymes.
Immunoprecipitation of 500 ug of NRKC cell lysate with SNARK antiserum was performed as described above. Phosphotransferase activity was assayed with either SAMS peptide (250 uM) or 30 ug of dephosphorylated MBP, dephosphorylated β-casein, whole histone fraction or protamine sulfate in the presence of 1 μM PKC inhibitor and 500 nM PKA inhibitor peptides. Phosphortransferase activity is expressed in fmol of phosphate transferred to the SAMS peptide/min at 30 C per mg of protein subjected to immunoprecipitation. Results are means±S.E.M. for two individual assays with at least eight samples per group. *p<0.01 compared with all other substrates.

In series [8] the target is SAMS peptide. Description: cell-based or functional assay.
Series [9] addresses whole histone fraction. Kind of series: cell-based or functional assay.
Series [10] concerns the target protamine sulfate. Description: cell-based or functional assay.
Series [11] addresses dephosphorylated B-casein. Description: cell-based or functional assay.
The target in series [12] is dephosphorylated myelin basic protein. Description: cell-based or functional assay.

This is an account of results in patent US20040132025A1, “Ampk-related serine/threonine kinase, designated snark” (priority 2001, published 2004).

Marks after values point to notes of the source that are not given here.

T1 sequence (Q09137 whole entry): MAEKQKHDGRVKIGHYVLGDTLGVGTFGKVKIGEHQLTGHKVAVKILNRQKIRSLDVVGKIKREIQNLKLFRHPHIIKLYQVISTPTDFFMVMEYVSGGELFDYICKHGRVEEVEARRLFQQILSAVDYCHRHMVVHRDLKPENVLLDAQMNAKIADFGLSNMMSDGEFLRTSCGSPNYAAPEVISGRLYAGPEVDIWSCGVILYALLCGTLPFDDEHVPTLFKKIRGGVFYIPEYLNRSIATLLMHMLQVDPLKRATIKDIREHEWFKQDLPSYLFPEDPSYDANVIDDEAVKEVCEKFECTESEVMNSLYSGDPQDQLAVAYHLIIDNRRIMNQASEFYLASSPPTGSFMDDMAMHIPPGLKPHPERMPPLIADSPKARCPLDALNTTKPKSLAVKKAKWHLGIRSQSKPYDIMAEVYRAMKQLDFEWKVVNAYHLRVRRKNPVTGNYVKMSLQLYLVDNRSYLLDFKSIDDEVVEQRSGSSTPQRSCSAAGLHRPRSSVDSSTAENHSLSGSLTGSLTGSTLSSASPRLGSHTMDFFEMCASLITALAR
T1 sequence (P80386 whole entry partner): as the sequence (P80386 whole entry partner) above
T1 sequence (P80385 whole entry): as the sequence (P80385 whole entry) above

In the case of `NC(=O)c1ncn([C@@H]2O[C@H](CO)[C@@H](O)[C@H]2O)c1N` [AICAR, 5-aminoimidizole-4-carboxamide riboside], the “Increase in AMPK-α2 activity over basal” value in series [1] was “at least 2 fold”. Moreover, the “Stimulation of AMPKα1 activity” value in series [2] is reported as “not stimulated”. Besides, the “Induction of SNARK activity relative to untreated cells” value in series [3] amounted to 2.8 fold.

For the compound `Nc1ncnc2c1ncn2[C@@H]1O[C@H](COP(=O)(O)O)[C@@H](O)[C@H]1O` [AMP], the “Change in SNARK phosphotransferase activity” value in series [4] and in series [6] was “no significant change” each time. Moreover, in series [5], the “Increase in SNARK phosphotransferase activity” value was determined as 1.7 fold.

Turning to “HMRSAMSGLHLVKRR [SAMS peptide, synthetic peptide AMPK substrate corresponding to the site in rat acetyl-CoA carboxylase phosphorylated by AMPK]”, in [7], the “Activity (phosphotransferase activity of SNARK towards substrate)” value was 145 ± 46* fmol/min per mg and the “Ability of SNARK to phosphorylate the substrate” value was “able to phosphorylate”.

Take Protamine sulfate: in [7], the “Activity (phosphotransferase activity of SNARK towards substrate)” value came out at 7 ± 2 fmol/min per mg and the “Ability of SNARK to phosphorylate the substrate” value is on record as “minimal”.

In the case of rat SNARK protein (enzyme), the Activity (fmol/min per mg); phosphotransferase activity of SNARK immunoprecipitated from NRKC cell lysate (fmol/min per mg) in series [8] came out at 145; in series [9], 19; in series [10] it was 7; in [11] it was 37; in series [12], 91.
